Data taken from US9701748B2, “Humanized anti-CD22 antibody” (IMMUNOMEDICS, INC., priority 2014, dated 2017).

What was measured:
NHL patients = settings: cited from earlier work
B cells in PBMCs = experiment: Relative B cell count after overnight treatment of PBMCs; format: cell-based, human
Protocol: (§1) Peripheral blood mononuclear cells (PBMCs) obtained from healthy donors were incubated overnight (16-24 h) with 10 μg/mL of either epratuzumab or an isotype control mAb (hMN-14) and the relative levels of various antigens on the surface of the B cells were analyzed by flow cytometry. PBMCs from heparinized whole blood of normal donors were isolated by density gradient centrifugation on UNI-SEP tubes (Novamed Ltd, Israel). PBMCs were reconstituted in RPMI media supplemented with 10% heat inactivated fetal bovine serum and plated at a cell density of 1.5×10^6/mL in non-tissue culture treated 48-well plates. […] Stained cells were analyzed by flow cytometry on a FACSCALIBUR® (BD Biosciences) using Flowjo (V7.6.5) software. Initially, the lymphocyte population was gated by side vs. forward scattering, and B cells were further gated from this population with the CD19 signal. The mean fluorescence intensity (MFI), obtained with fluorochrome-conjugated antibodies to various cell surface antigens, on the gated B cells was calculated following treatment with epratuzumab, hMN-14 or without antibody. PBMCs from 16 healthy donors were assessed in various experiments.

[1] = tested on: B cells gated from PBMCs of healthy donors; experiment: Trogocytosis: surface antigen levels on B cells after overnight treatment of PBMCs, flow cytometry; format: cell-based, human
Protocol: as §1

subjects = settings: reported, Morchhauser et al., 2009, Goldenberg et al., Robak & Robak, 2011; cited from earlier work
CD22 = molecular target: T1, CD22 (Homo sapiens, UniProt P20273); experiment: Binding affinity for CD22+ Daudi cells determined by ELISA (FIG. 2); settings: CD22+ Daudi cells, FIG. 2
T1 construct: endogenous in cells; host or cells: Daudi (Burkitt lymphoma) cells
Protocol: FIG. 2. Comparative binding affinity for CD22+ Daudi cells of hLL2 IgG, hRFB4 IgG, chimeric RFB4 conjugated to AD2 peptide, and hMN-14 IgG, as determined by ELISA. The binding affinity of hRFB4 as determined for Daudi cells is about 10-fold higher than that of hLL2 and about 30% higher than the chimeric RFB4.
The hRFB4 antibody was prepared as described above, resulting in a humanized anti-CD22 antibody with variable region sequences as shown in FIG. 1A and FIG. 1B (SEQ ID NO:7 and SEQ ID NO:8). After expression, the binding affinity or CD22+ Daudi cells was compared to that of the hLL2 antibody, comprising the same FR and constant region sequences but different CDR sequences, and to the chimeric RFB4 antibody, comprising the same CDR sequences but different FR and constant region sequences.

[2] = Antibody-dependent cell-mediated cytotoxicity in vitro; format: cell-based
circulating B cells = settings: may be overestimated due to use of CD19+ cells to measure B cells; cited from earlier work
[3] = Complement-dependent cytotoxicity in vitro; format: cell-based
[4] = tested on: NHL Burkitt cell lines (Daudi, Raji, and Ramos); experiment: Surface markers on NHL Burkitt cell lines, isolated or spiked into normal PBMCs; format: cell-based, human
From the text: This mechanism of action may explain the limited effectiveness of high doses of epratuzumab compared to lower doses in patients with SLE.

[5] = tested on: patients with SLE who have failed at least one previous therapy; experiment: Combination therapy of SLE with hRFB4 and hLL2; format: in vivo, human; settings: single antibody alone, same dosage and schedule
Protocol: Patients with SLE who have failed at least one previous therapy receive combination therapy with 160 mg each of hRFB4 and hLL2 (epratuzumab), administered s.c. in 2 injections weekly for four weeks. Control groups receive hRFB4 alone, hLL2 alone or irrelevant antibody (hMN-14) at the same dosage and schedule. […] All serum samples evaluated for anti-human antibodies (HAHA) are negative.

Daudi cells = experiment: Dose-response of trogocytosis of CD22 and CD19 from Daudi cells (FIG. 6A, 6B); format: cell-based, human
[6] = 4 doses of 80, 160 or 320 mg s.c. every two weeks
[7] = 10 μg/mL, overnight, PBMCs of healthy donors

Molecule: veltuzumab: humanized IgG1 antibody against CD20
- objective response in the 80 mg dosage group (NHL patients; 80 mg): 67%
- patients showing a complete response in the 80 mg dosage group (NHL patients; 80 mg): one of three
- CR/CRu (complete response) rate (NHL patients; [6]): 24%
- objective response rate (CR+CRu+PR) (NHL patients; [6]): 47%
- objective responses continued for 60 weeks (NHL patients; 60 weeks): Four out of eight
- HAHA in serum samples (NHL patients; all serum samples evaluated): negative
- safety (NHL patients; s.c.): Only occasional, mild to moderate and transient injection reactions
- reduction of the B cell count (B cells in PBMCs; 10 μg/mL, overnight, PBMCs of healthy donors, FIG. 9): 40%
- reduction of CD19, CD21 and CD79b compared with epratuzumab ([1]; PBMCs of healthy donors, overnight, FIG. 9): greater extent than epratuzumab
- immunogenicity compared with rituximab (subjects): less immunogenic in subjects than rituximab

B1: hLL2: humanized anti-CD22 antibody hLL2 (epratuzumab) (antibody, V domains shown)
VH: QVQLQQSGAEVKKPGSSVKVSCKASGYTFTSYWLHWVRQAPGQGLEWIGYIYPRNDYTEYNQNFKDKATITADESTNTAYMELSSLRSEDTAFYFCARRDITTFYWGQGTTVTVSS
VL: DIQLTQSPSSLSASVGDRVTMSCKSSQSVLYSANHKNYLAWYQQKPGKAPKLLIYWASTRESGVPSRFSGSGSGTDFTFTISSLQPEDIATYYCHQYLSSWTFGGGTKVQIKR
- Kd (CD22): 2 nM
- antibody-dependent cell-mediated cytotoxicity [2]: modest, but significant
- depletion of circulating B cells in patients, on average (circulating B cells): 35%
- B cell depletion (B cells in PBMCs; either at 10 μg/mL or 1 mg/mL, ex vivo): did not cause significant B cell depletion
- complement-dependent cytotoxicity [3]: negligible
- reduction of CD22, CD19, CD21, CD20 and CD79b on the surface of B cells ([4]; PBMCs from normal donors or lupus patients, and NHL lines spiked into normal PBMCs): substantial reduction
- surface markers decreased in isolated NHL cells ([4]; isolated NHL cells, no effector cells): only CD22, but not other surface markers, was appreciably decreased
- objective responses [5]: Objective responses are observed
- CD19 level on B cells, % of untreated or control mAb [1, 7]: 50%
- CD20 level on B cells, % of untreated or control mAb [1, 7]: 82%
- CD21 level on B cells, % of untreated or control mAb [1, 7]: 52%
- CD22 level on B cells, % of untreated or control mAb [1, 7]: 10%
- CD62L level on B cells, % of untreated or control mAb [1, 7]: 73%
- CD79b level on B cells, % of untreated or control mAb [1, 7]: 70%
- change of CD27 (on CD27+ B cells), CD40, CD44, CD45, β7 integrin and LFA-1 (CD11a and CD18) [1, 7]: < 10 % change
- responsiveness of CD27− naive B cells compared to CD27+ memory B cells ([1]; CD19, PBMCs from 3 healthy donors): more responsive
- time course of the reduction of surface antigens ([1]; PBMCs of healthy donors): essentially complete within a few hours
- minimal concentration to induce the maximal level of trogocytosis of CD19 (Daudi cells; CD19 from Daudi cell, FIG. 6B): 10 ng/mL
- minimal concentration to induce the maximal level of trogocytosis of CD22 (Daudi cells; CD22 from Daudi cell, FIG. 6A): 10 ng/mL
- concentration inducing the maximal level of trogocytosis of CD19 and CD22 (Daudi cells; dose-response curve, FIG. 6A and 6B): 10 ng/mL
